Four molecules from paper PMC11271964, “Design and characterization of hyperactive mutants of the Agrobacterium tumefaciens telomere resolvase, TelA” can be followed below.

Data set [1] deals with TelA (107–442) N-terminal domain deletion mutant with the E337K mutation (Agrobacterium tumefaciens).
The target in the next data set is T1, TelA (ΔN) (Agrobacterium tumefaciens, UniProt Q7CWV1 107-442).
T1 sequence: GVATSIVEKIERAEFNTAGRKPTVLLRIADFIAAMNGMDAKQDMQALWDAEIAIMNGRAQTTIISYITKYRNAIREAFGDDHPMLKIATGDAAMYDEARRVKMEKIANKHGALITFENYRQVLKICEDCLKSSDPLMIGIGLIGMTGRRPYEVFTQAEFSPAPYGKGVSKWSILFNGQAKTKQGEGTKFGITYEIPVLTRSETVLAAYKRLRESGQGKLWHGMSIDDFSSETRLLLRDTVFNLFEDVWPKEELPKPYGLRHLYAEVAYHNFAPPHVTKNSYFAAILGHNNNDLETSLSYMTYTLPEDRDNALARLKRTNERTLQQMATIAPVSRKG
The data set is described as follows: EMSA; 2 mM Ca2+; EMSA: HEPES pH 7.6, 1 mM DTT, 2 mM CaCl2, 100 ug/mL BSA, 50 mM potassium glutamate, 0.8 ug/mL supercoiled pUC19 competitor, 76 ng/mL heparin sulphate, 2 nM labeled rTel, 0 C. As to conditions: protein: recombinant.

Another data set has as its target T2, TelA (ΔC3; D202AE337K) (Agrobacterium tumefaciens, UniProt Q7CWV1 1-439, D202A;E337K).
T2 sequence: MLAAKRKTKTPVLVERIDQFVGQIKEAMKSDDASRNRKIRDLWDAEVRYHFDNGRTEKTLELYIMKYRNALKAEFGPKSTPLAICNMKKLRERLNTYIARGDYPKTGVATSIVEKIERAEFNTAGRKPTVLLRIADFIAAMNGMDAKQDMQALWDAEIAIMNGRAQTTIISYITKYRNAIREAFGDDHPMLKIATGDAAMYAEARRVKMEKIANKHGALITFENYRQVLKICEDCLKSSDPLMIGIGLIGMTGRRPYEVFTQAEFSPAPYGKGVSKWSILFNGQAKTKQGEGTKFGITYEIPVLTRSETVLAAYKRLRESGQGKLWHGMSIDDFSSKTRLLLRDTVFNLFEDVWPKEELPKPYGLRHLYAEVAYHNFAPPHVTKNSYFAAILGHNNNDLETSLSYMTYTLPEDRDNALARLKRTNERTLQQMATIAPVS
The description is as above. The conditions noted are these: protein: recombinant; chain copies: 2; label: 5'-fluorescein on strand 1; 5' overhang 2 nt at both ends.

The target in another data set is T3, TelA (ΔNΔC3; D202RE337K) (Agrobacterium tumefaciens, UniProt Q7CWV1 107-439, D202R;E337K).
T3 sequence: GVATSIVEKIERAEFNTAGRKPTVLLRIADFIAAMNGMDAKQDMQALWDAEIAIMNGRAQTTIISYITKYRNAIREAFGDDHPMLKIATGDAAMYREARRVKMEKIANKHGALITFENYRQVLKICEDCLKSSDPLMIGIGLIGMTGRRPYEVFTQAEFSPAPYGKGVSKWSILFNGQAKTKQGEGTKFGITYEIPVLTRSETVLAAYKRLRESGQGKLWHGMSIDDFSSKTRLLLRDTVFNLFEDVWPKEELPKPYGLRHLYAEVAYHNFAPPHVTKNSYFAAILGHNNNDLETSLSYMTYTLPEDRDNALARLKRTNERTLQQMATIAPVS
The description is as above. As to conditions: protein: recombinant; chain copies: 2; label: 5'-fluorescein on strand 1; 5' overhang 2 nt at both ends.

For data set [2], the target named is T4, TelA N-terminal domain (N; K9E) (Agrobacterium tumefaciens, UniProt Q7CWV1 1-106, K9E).
T4 sequence: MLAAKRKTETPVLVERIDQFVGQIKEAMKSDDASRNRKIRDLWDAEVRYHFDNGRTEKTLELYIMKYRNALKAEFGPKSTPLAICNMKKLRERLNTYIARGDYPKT
Described as above. The conditions noted are these: protein: recombinant; label: 5'-fluorescein on strand 1; 5' overhang 2 nt at both ends.

In the next data set the target is T5, TelA wild type (Agrobacterium tumefaciens, UniProt Q7CWV1 1-442).
T5 sequence: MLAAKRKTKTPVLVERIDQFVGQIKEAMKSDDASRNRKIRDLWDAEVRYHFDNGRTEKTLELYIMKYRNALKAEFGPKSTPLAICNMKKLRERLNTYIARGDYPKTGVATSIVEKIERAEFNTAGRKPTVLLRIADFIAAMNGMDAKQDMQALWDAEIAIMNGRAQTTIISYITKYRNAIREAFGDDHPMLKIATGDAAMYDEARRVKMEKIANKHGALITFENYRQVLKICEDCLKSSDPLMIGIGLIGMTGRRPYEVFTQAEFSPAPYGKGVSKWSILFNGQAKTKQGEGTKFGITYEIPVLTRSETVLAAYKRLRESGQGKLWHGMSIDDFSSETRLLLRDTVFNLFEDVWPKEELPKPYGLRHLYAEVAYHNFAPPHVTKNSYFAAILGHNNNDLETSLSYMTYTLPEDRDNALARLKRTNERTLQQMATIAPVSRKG
Description: EMSA; 2 mM Ca2+; c1 and c2 complexes; EMSA: HEPES pH 7.6, 1 mM DTT, 2 mM CaCl2, 100 ug/mL BSA, 50 mM potassium glutamate, 0.8 ug/mL supercoiled pUC19 competitor, 76 ng/mL heparin sulphate, 2 nM labeled rTel, 0 C. The conditions noted are these: protein: recombinant; chain copies: 2; label: 5'-fluorescein on strand 1; 5' overhang 2 nt at both ends.

Data set [3] concerns the target T6, TelA N-terminal domain (N) (Agrobacterium tumefaciens, UniProt Q7CWV1 1-106).
T6 sequence: T4 sequence with E9K
Description: EMSA; 2 mM Ca2+; laddering bandshift; EMSA: HEPES pH 7.6, 1 mM DTT, 2 mM CaCl2, 100 ug/mL BSA, 50 mM potassium glutamate, 0.8 ug/mL supercoiled pUC19 competitor, 76 ng/mL heparin sulphate, 2 nM labeled rTel, 0 C. The conditions noted are these: protein: recombinant; label: 5'-fluorescein on strand 1; 5' overhang 2 nt at both ends. A general note: In EMSA bound probe runs differently from free probe, usually more slowly.

Changes are numbered by the printed parent chain.

Molecule “TelA (1–106), N-terminal domain of the Agrobacterium tumefaciens telomere resolvase TelA (from UniProt A0A822V2W1 1-106) (domain or fragment)” had a fold reduction of the initial rate of telomere resolution by (ΔN; E337K) at 0°C when the N-terminal domain (N, 800 nM, about 10-fold molar excess) is added in trans in data set [1] of 22 fold.

With “TelA (1–106) N-terminal domain with the K9E mutation (from UniProt A0A822V2W1 1-106) (domain or fragment)”, the fold reduction of the initial rate of telomere resolution by (ΔN; E337K) at 0°C when (N; K9E) is added in trans in data set [1] turned out to be 10 fold.

B1: hairpin telomere (hp), OKBA28F (structured_DNA)
DNA: ATCCCTCTAACCATTGCGCGATCGATCATAATAACAATATCATGATATTGTTATTATGATCGATCGCGCAATGGTTAGAGG
Regarding B1, the binding result in the data set with TelA (ΔN) (label: 5'-fluorescein, hairpin, 5' overhang 3 nt) is recorded as “no binding”.

B2: rTel (OGCB951F/OGCB952) (dsDNA)
DNA 1: AACTCTAACCATTGCGCGATCGATCATAATAACAATATCATGATATTGTTATTGTAATCGATCGCGGATCCCGGGCGTAGCCACGTAGGT
DNA 2: GAACCTACGTGGCTACGCCCGGGATCCGCGATCGATTACAATAACAATATCATGATATTGTTATTATGATCGATCGCGCAATGGTTAGAG
For the molecule B2, the binding result with TelA (ΔN) (chain copies: 2, label: 5'-fluorescein on strand 1, 5' overhang 2 nt at both ends) is “no binding”; in the data set with TelA (ΔC3; D202AE337K), “binds”; with TelA (ΔNΔC3; D202RE337K) it was “binds”; in data set [2], “no binding”; with TelA wild type, “binds”; in data set [3] it was “binds”.
